According to paper PMC7282669, “The hydrophobic effect characterises the thermodynamic signature of amyloid fibril growth” (PLoS Computational Biology, 2020):

Molecular target: the molecule itself
Experiment: ITC; crystals injected into water; heat of crystal dissolution taken as the negative of the heat of crystal growth; two temperatures

B1: GNNQQNY, a small fragment of the Sup35 protein (peptide)
peptide: GNNQQNY
notes: fragment of the Sup35 protein; Forms amyloid-like microcrystals; also called GNNQQNY peptide
B1: binds.
